Measured values as given in patent US20240034792A1 (HARBOUR BIOMED SHANGHAI, published 2024).
Substitutions are numbered along the chain they refer to.

B1: PR000677 (antibody, human IgG4 S228P, kappa, V domains shown)
VH: QVQLQQSGPGLVKPSQTLSLTCAISGDSVSSNSAAWNWIRQSPSRGLEWLGRTYYRSKWYSDYGISVNSRITVNPDTSKNLFSLQLNPVTPEDTAVYYCTRETHYYGSGSYLDYWSQGTLVTVSS
VL: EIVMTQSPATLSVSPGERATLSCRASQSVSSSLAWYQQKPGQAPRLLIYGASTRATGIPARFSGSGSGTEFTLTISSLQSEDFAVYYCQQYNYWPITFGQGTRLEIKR
notes: Fully human recombinant H2L2 antibody, human IgG4, kappa light chain; also called 4004_33B9E4
B2: PR000673 (antibody, human IgG4 S228P, kappa, V domains shown)
VH: QVQLVESGGGVVQPGRSLRLSCAASGFIFSNYGMHWVRQAPGKGLEWVAVIWYDGSKKYYGDSVKGRFTISRDNSKNTLYLQMNSLRDEDTAVYFCARNDDYWGQGTLVTVSS
VL: EIVLTQSPATLSFSPGERATLSCRASQSVSSDLAWYQQKPGQAPSLLIYDASNRATGIPARFSGSGSGTDFTLTISSLEPEDFAVYYCHQRNNWPLTFGGGTKVEIKR
notes: Fully human recombinant H2L2 antibody, human IgG4, kappa light chain; also called 4004_10H9A12
B3: PR000675 (antibody, human IgG4 S228P, kappa, V domains shown)
VH: EVQLLESGGGLVQPGGSLRLSCVDSGFTFSSYAMTWVRQAPGKGLEWVSGISGSGYSTYYADSVKGRFTISRDNSKKTLYLQMNSLRAEDTAVYYCAELSLDYWGQGTLVTVSS
VL: B2 VL with F13L, S31R, D32Y, S45R, I48M, Y49H, S52A, I58L, S63N, H89Q
notes: Fully human recombinant H2L2 antibody, human IgG4, kappa light chain; also called 4004_19G8F2
B4: PR000150 (pembrolizumab analog) (antibody, human IgG4 S228P, kappa, V domains shown)
VH: QVQLVQSGVEVKKPGASVKVSCKASGYTFTNYYMYWVRQAPGQGLEWMGGINPSNGGTNFNEKFKNRVTLTTDSSTTTAYMELKSLQFDDTAVYYCARRDYRFDMGFDYWGQGTTVTVSS
VL: EIVLTQSPATLSLSPGERATLSCRASKGVSTSGYSYLHWYQQKPGQAPRLLIYLASYLESGVPARFSGSGSGTDFTLTISSLEPEDFAVYYCQHSRDLPLTFGGGTKVEIKR
notes: Anti-PD-1 positive control; also called positive control antibody pembrolizumab
B5: PR000674 (antibody, human IgG4 S228P, kappa, V domains shown)
VH: QVQLVESGGGVVQPGKSLRLSCTVSGLTFSDNGMHWVRQAPGRGLEWMSVIWYDGSKKYYADSVKGRFTISRDNSKNTLYLQMNNMRVEDTAVYYCATNSDYWGQGTLVTVSS
VL: EIVLTQSPATLSLSPGERATLSCRASQSVSSYLAWYQQKPGQAPRLLIYDTSKRATGIPARFSGSGSGTDFTLTISSLEPEDFAVYYCQQHNNWIFTFGPGTKVDIKR
notes: Fully human recombinant H2L2 antibody, human IgG4, kappa light chain; also called 4004_12H9C1
B6: PR002474 (antibody, human IgG1, V domains shown)
VH: EVQLVETGGGLIQPGGSLRLSCAASGFNVSSHYMSWVRQAPGKGLEWVSIIHSGGSTYYADSVKGRFTISRDNSKNRLYLQMNSLRADDTAVYYCARATAVAEKNGYNYPFNYWGQGTLVTVSS
notes: Heavy-chain-only antibody (HCAb), human IgG1 Fc; two heavy chains, no light chain; also called R4004P547D3
B7: PR002476 (antibody, human IgG1, V domains shown)
VH: B6 VH with D88E
notes: Heavy-chain-only antibody (HCAb), human IgG1 Fc; two heavy chains, no light chain; also called R4004P547H11
B8: PR002479 (antibody, human IgG1, V domains shown)
VH: B6 VH with D88E, K104E
notes: Heavy-chain-only antibody (HCAb), human IgG1 Fc; two heavy chains, no light chain; also called R4004P551D6

Tests used:
[1] = molecular target: T1, Human PD-1 expressed on CHO-K1 cells (CHO-K1/hPD-1) (human, UniProt Q15116 25-288); assay: FACS blocking of biotin-labeled human PD-L1 binding to CHO-K1-hPD-1 cells
T1 construct: whole, on cells; also called CHO-K1 cells overexpressing human PD-1
T1 sequence (Q15116 25-288): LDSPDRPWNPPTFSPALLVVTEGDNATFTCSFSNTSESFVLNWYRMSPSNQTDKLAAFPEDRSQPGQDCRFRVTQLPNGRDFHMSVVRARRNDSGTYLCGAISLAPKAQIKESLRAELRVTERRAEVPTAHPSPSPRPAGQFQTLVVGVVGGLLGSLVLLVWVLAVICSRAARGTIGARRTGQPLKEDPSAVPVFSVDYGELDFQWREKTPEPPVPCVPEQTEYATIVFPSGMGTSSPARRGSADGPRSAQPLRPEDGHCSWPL
Description: (§1) Briefly, the CHO-K1-hPD-1 cells were digested and resuspended in an F-12K complete medium, and the cell density was adjusted to 1×10⁶ cells/mL. The cells were seeded in a 96-well V-bottom plate (Corning, Cat#3894) at 100 μL/well, followed by the addition of the test antigen-binding proteins with concentrations 2-fold of final concentrations obtained by 3-fold or 5-fold gradient dilution were each added at 100 μL/well. The mixtures were well mixed. The maximum final concentration of the antigen-binding proteins was 100 nM or 300 nM. A total of 8 concentrations were set. hIgG was used as a control. The cells were incubated at 4° C. for 1 h away from light. […] The cells were incubated at 4° C. away from light for 30 min. The cells in each well were rinsed twice with 100 μL of pre-cooled PBS, and centrifuged at 500 g at 4° C. for 5 min, and then the supernatant was discarded. A fluorescent secondary antibody (PE Streptavidin, BD, Cat# 554061, 1:200) was added at 100 μL/well, and the cells were incubated at 4° C. away from light for 30 min. The cells in each well were rinsed twice with 200 μL of pre-cooled PBS, and centrifuged at 500 g at 4° C. for 5 min, and then the supernatant was discarded. Finally, the cells in each well were resuspended in 200 μL of pre-cooled PBS, the fluorescence signal values were read using a BD FACS CANTOII, and the IC₅₀ values were calculated.

[2] = molecular target: T1, Human PD-1 expressed on CHO-K1 cells …; assay: FACS blocking of biotin-labeled human PD-L2 binding to CHO-K1-hPD-1 cells
Description: as §1

[3] = molecular target: T2, Human PD-1-His protein (ACROBiosystems, # PD1-H5221) (human, UniProt Q15116 25-167); assay: ELISA, plate-coated human PD-1-His
T2 construct: Bought reagent, coated on the ELISA plate; also called human PD-1 protein; human PD-1 antigen; not shown: His tag
T2 sequence (Q15116 25-167 limits assumed): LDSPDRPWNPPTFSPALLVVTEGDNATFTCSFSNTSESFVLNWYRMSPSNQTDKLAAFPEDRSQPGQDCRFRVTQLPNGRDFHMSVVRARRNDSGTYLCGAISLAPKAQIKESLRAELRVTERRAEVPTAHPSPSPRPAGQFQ
Description: Human PD-1-His protein (ACROBiosystems, # PD1-H5221) was diluted to 2 μg/mL with PBS, added to a 96-well plate (Corning, cat#9018) at 100 μL/well, and incubated at 4° C. overnight. After the liquid was discarded, the plate was washed 3 times with PBST buffer (pH 7.4, containing 0.05% Tween-20), and 250 μL of 2% BSA blocking buffer was added. The plate was incubated at 37° C. for 1 h. The blocking buffer was discarded, and the plate was washed 3 times with PBST buffer (pH 7.4, containing 0.05% Tween-20). The test antigen-binding protein was 5-fold diluted in sequence at an initial concentration of 100 nM for a total of 8-10 concentration gradients, and added at 100 μL/well. The plate was incubated at 37° C. for 1 h. An isotype antibody was taken as a control. After the plate was washed 3 times with PBST buffer (pH 7.4, containing 0.05% Tween-20), a 4000-fold diluted goat anti-human HRP secondary antibody (Invitrogen, #A18805) was added. The plate was incubated away from light at 37° C. for 1 h. After the plate was washed 3 times with PBST buffer (pH 7.4, containing 0.05% Tween-20), TMB (Biopanda, # TMB-S-003) was added at 100 μL/well. The plate was left away from light at room temperature for about 5 min. The reactions were terminated by adding 50 μL of stop buffer (BBI life sciences, #E661006-0200) to each well, and the absorbance values at 450 nm (OD450) were measured using a microplate reader (PerkinElemer, #Enspire). The half maximal effective concentration (EC₅₀) was calculated from the measurement results.

[4] = molecular target: T3, Cynomolgus monkey PD-1 expressed on CHO-K1 cells (CHO-K1/cyno PD-1) (cynomolgus monkey, UniProt B0LAJ3 25-288); assay: FACS, CHO-K1/cyno PD-1 cells
T3 construct: also called CHO-K1 cells overexpressing cynomolgus monkey PD-1
T3 sequence (B0LAJ3 entry or part of it limits assumed): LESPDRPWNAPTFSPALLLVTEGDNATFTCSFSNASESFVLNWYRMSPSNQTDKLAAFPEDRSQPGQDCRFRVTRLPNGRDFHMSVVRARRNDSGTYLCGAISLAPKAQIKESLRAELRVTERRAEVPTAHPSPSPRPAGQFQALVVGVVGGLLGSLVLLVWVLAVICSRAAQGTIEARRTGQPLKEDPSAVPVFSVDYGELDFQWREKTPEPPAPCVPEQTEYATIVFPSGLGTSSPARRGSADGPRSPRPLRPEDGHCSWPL
Description: (§2) In order to investigate the in vitro binding activity of the PD-1 antigen-binding proteins to human/cynomolgus monkey PD-1, the binding assay at the cellular level was performed using a CHO-K1 cell strain overexpressing human or cynomolgus monkey PD-1 (CHO-K1/hPD-1 or CHO-K1/cyno PD-1, from GenScript). Briefly, the CHO-K1-hPD-1 cells were digested and resuspended in an F-12K complete medium, and the cell density was adjusted to 1×10⁶ cells/mL. The cells were seeded in a 96-well V-bottom plate (Corning, Cat#3894) at 100 μL/well, followed by the addition of the test antigen-binding proteins with concentrations 2-fold of final concentrations obtained by 5-fold gradient dilution were each added at 100 μL/well. The mixtures were well mixed. The maximum final concentration of the antigen-binding proteins was 100 nM or 300 nM. A total of 8-11 concentrations were set. hIgG was used as a control. The cells were incubated at 4° C. for 1 h away from light. Thereafter, the cells in each well were rinsed twice with 100 μL of pre-cooled PBS, and centrifuged at 500 g at 4° C. for 5 min, and then the supernatant was discarded. Then 100 μL of a fluorescent secondary antibody (goat anti-human IgG (H+L) secondary antibody, Alexa Fluor® 488 conjugate, Invitrogen, Cat #A11013, 1:1000) was added to each well. The plate was incubated away from light at 4° C. for 30 min. The cells in each well were rinsed twice with 200 μL of pre-cooled PBS, and centrifuged at 500 g at 4° C. for 5 min, and then the supernatant was discarded. Finally, the cells in each well were resuspended in 200 μL of pre-cooled PBS, and the fluorescence signal values were read using a BD FACS CANTOII.

[5] = molecular target: T1, Human PD-1 expressed on CHO-K1 cells …; assay: FACS, CHO-K1/hPD-1 cells
Description: as §2

[6] = molecular target: T4, Cynomolgus monkey PD-1-His protein (AcroBiosystems, # PD1-05223) (cynomolgus monkey, UniProt B0LAJ3 25-170); assay: ELISA, plate-coated cynomolgus monkey PD-1-His
T4 construct: Bought reagent, coated on the ELISA plate; also called cynomolgus monkey PD-1 protein
T4 sequence (B0LAJ3 entry or part of it limits assumed): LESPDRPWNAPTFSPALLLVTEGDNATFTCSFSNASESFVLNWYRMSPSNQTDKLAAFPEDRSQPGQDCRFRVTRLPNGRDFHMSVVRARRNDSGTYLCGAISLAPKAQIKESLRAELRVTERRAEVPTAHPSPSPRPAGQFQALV
Description: Cynomolgus monkey PD-1-His protein (AcroBiosystems, # PD1-05223) was diluted to 2 μg/mL with PBS, added to a 96-well plate (Corning, #9018) at 100 μL/well, and incubated at 4° C. overnight. After the liquid was discarded, the plate was washed 3 times with PBST, blocked by adding 250 μL of 2% BSA, and incubated at room temperature for 1 h. The blocking buffer was discarded, and the plate was washed 3 times with PBST buffer (pH 7.4, containing 0.05% Tween-20). The test antigen-binding protein was diluted to 5 μg/mL, and added at 100 μL/well. The plate was incubated at 37° C. for 1 h. After the plate was washed 3 times with PBST buffer (pH 7.4, containing 0.05% Tween-20), a 4000-fold diluted goat anti-human HRP secondary antibody (Invitrogen, #A18805) was added. The plate was incubated at 37° C. for 1 h. After the plate was washed, TMB (Biopanda, # TMB-S-003) was added at 100 μL/well. The plate was left away from light at room temperature for 5 min. The reactions were terminated by adding 50 μL of stop buffer (BBI life sciences, #E661006-0200) to each well, and the absorbance values at 450 nm (OD450) were measured using a microplate reader (PerkinElemer, #Enspire).

Row | Binder | IC50 [1] | Maximum inhibition rate (%) [1] | IC50 [2] | Maximum inhibition rate (%) [2] | EC50 [3] | OD Maximum [3] | EC50 [4] | MFI Maximum [4] | EC50 [5] | MFI Maximum [5] | EC50 [6] | OD Maximum [6]
1 | B1 | 3.4 nM | 31.2% | 4.52 nM | 14% | 0.078 nM | 3.27 | 2.86 nM | 34500 | 2.1 nM | 1.87e+06 | – | –
2 | B2 | 0.402 nM | 45.6% | 1.55 nM | 90.3% | 0.066 nM | 3.09 | 2.04 nM | 38200 | 4.76 nM | 1.57e+06 | – | –
3 | B3 | 12.4 nM | 72% | 19.7 nM | 59.9% | 0.113 nM | 3.31 | 6.91 nM | 36800 | 7.91 nM | 2.29e+06 | – | –
4 | B4 | – | – | – | – | – | – | 0.998 nM | 19100 | – | – | 0.039 nM | 2.86
5 | B5 | 0.769 nM | 66.7% | 1.83 nM | 92.7% | 0.074 nM | 3.24 | 2.35 nM | 41200 | 1.94 nM | 2.35e+06 | – | –
6 | B6 | 8.91 nM | 92.2% | – | – | 0.189 nM | 2.97 | – | – | 13.9 nM | 1.08e+06 | 0.345 nM | 2.89
7 | B7 | 10.3 nM | 91.3% | – | – | 0.171 nM | 2.92 | – | – | 12.7 nM | 1.02e+06 | 0.366 nM | 2.7
8 | B8 | 16.2 nM | 96.2% | – | – | 0.152 nM | 2.85 | – | – | 17 nM | 1.05e+06 | 0.252 nM | 2.88
